Source: the supplement of paper PMC10201428
± gives the standard deviation of the averaged measurements.

B1: library; a variant is named by its letters at N, in order (parent)
chain: AATGTTGTTGATGCAACCATAAAGTGATATTTAATAATTATTTATAATCAGCAACTTAACCACAAAACAACCATATATTGATATNTCACAAAACAACCATAANTTGATATTTTTGTGAATCGAGTATTTCAGCAAAACTACTGCAGTAAGAA

Key:
[1] = variants of: B1; experiment: relative integration efficiency (T-LR orientation) vs wild-type transposon end (log2 (normalized fold change)); transposon end mutated: left end; higher = more efficient transposition; details: with VchCAST RNA-guided transposition machinery (E. coli BL21(DE3) host, lacZ target)
How it was run: (§1)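 Each barcoded pool, 1549 left-end or 1849 right-end transposon variants in a pUC57 mini-transposon donor, went into E. coli BL21(DE3) with a T7-driven effector plasmid (CRISPR array, tniQ-cas8-cas7-cas6, tnsA-tnsB-tnsC). Plates contained 0.1 mM IPTG and were held at 37°C for 18 h. Input plasmids and genomic integration junctions were PCR-amplified and read by Illumina sequencing, with two biological output replicates and four reference barcodes. Relative integration efficiency is the fold change of output over input barcode abundance, normalised to the reference barcodes and log-transformed.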

[2] = variants of: B1; experiment: relative integration efficiency (T-RL orientation) vs wild-type transposon end (log2 (normalized fold change)); transposon end mutated: left end; higher = more efficient transposition; details: with VchCAST RNA-guided transposition machinery (E. coli BL21(DE3) host, lacZ target)
How it was run: as §1

Variant	relative integration efficiency (log2) [1]	relative integration efficiency (log2) [2]
CG T45G A46C A47C T48G	-0.0893 ± 0.7	-0.487 ± 0.43
CG T31G T32G A33C A34C	-0.805 ± 0.2	-0.592 ± 0.32
CG T86C	0.176 ± 0.013	-0.261 ± 0.092
CG T86G	0.0399 ± 0.26	-0.108 ± 0.045
CG T86A	0.731 ± 0.2	0.656 ± 0.025
CG T78A T79A	-0.257 ± 0.57	-0.058 ± 0.35
CG T48A C49G A50T G51C	-2.64 ± 0.41	-2.28 ± 0.62
CG T31A	0.0948 ± 0.84	-0.128 ± 0.14
CG T31G	-0.35 ± 0.1	-0.221 ± 0.21
CG T31C	0.331 ± 0.47	-0.0756 ± 0.17
CG T39A	0.147 ± 0.58	0.0624 ± 0.071
CG T39G	0.304 ± 0.45	0.00997 ± 0.055
CG T39C	0.161 ± 0.47	0.0645 ± 0.011
CG T43G A44C A46G T48A C49G A50C C52A A53G T56A T57C A58C	-2.81 ± 2.2	-2.55 ± 1
CG T32A A77C T86G	-0.351 ± 0.47	-0.197 ± 0.12
CG T74G A75C T76G A77C	-2.54 ± 1.3	-1.95 ± 0.99
CG T48G C49A	-0.72 ± 0.49	-0.681 ± 0.47
CG T111A T112A T113A T114A	-0.629 ± 0.047	-0.668 ± 0.39
CG T78G	0.198 ± 0.14	-0.0793 ± 0.054

Variant	relative integration efficiency (log2) [1]	relative integration efficiency (log2) [2]
CG T78A	-0.0877 ± 0.12	0.0885 ± 0.016
CG T78C	0.27 ± 0.3	-0.0794 ± 0.1
CG T110A T111A T112A T113A	-0.328 ± 0.56	-0.587 ± 0.42
CG T42A T43A	0.176 ± 0.54	-0.0273 ± 0.049
CG T42A T43A A44T T45A	0.262 ± 0.049	0.271 ± 0.16
AG T31G T32G A33C T86G C87A T111G T112G T113G	-1.26 ± 0.48	-1.07 ± 0.49
CG T112A T113A	-0.503 ± 0.53	-0.318 ± 0.2
CG T45C T48C G51T C52A C55G T57G A59T C60A C61T A62T C63T A66C A67T	-0.402 ± 1	-5.71 ± 1.3
CG T39G A40C	-0.0204 ± 0.26	-0.535 ± 0.23
CG T86G C87A	-0.424 ± 0.33	-0.246 ± 0.1
CG T108A A109T T110A T111A	-1.21 ± 0.27	-0.957 ± 0.51
CG T79G G80T	-0.966 ± 0.14	-1.24 ± 0.76
CG T111G T112G	-0.977 ± 0.75	-0.622 ± 0.16
CG T113A T114A G115C T116A	-0.0852 ± 0.079	0.0572 ± 0.12
CG T48G C49A A50C G51T C52A A53C A54C C55A T56G T57G A58C	-3.04 ± 1.4	-2.79 ± 0.63
CG T38G T39G A40C T41G	0.212 ± 0.16	-0.193 ± 0.16
AG T30G T31G T32G A33C T84G T86G C87A T110G T111G T112G T113G	-2.2 ± 1.2	-2.54 ± 0.82
CG T48G C49A A50C G51T	-3.52 ± 2.9	-1.55 ± 0.54
CG T105A G106C A107T T108A	-1.32 ± 0.25	-1.6 ± 0.76

Variant	relative integration efficiency (log2) [1]	relative integration efficiency (log2) [2]
CG T74A A75T	-0.113 ± 0.66	-0.22 ± 0.27
CG T56G T57G	-1.54 ± 0.34	-1.59 ± 0.66
GG T84A	-0.365 ± 0.032	-0.231 ± 0.12
CG T28G	-0.845 ± 0.19	-0.536 ± 0.28
CG T39G A40C T41G T42G	0.3517 ± 0.00068	0.179 ± 0.11
CG T76C	-1.37 ± 0.51	-1.06 ± 0.46
CG T76A	0.179 ± 0.069	0.0494 ± 0.062
CG T76G	-0.699 ± 0.91	-0.903 ± 0.5
CG T82C	0.362 ± 0.73	0.536 ± 0.29
CG T82G	-0.227 ± 0.47	-0.597 ± 0.43
CG T41G T42G T43G A44C	0.146 ± 0.074	-0.195 ± 0.099
CG T110C	-0.691 ± 0.63	-0.405 ± 0.13
CG T110A	0.258 ± 0.5	-0.016 ± 0.099
CG T110G	-0.561 ± 0.13	-0.516 ± 0.25
CG T57A	-0.137 ± 0.84	0.139 ± 0.15
CG T57G	-1.94 ± 0.91	-1.33 ± 0.56
CG T57C	-0.422 ± 0.61	-0.546 ± 0.31
CG T113G T114G	-0.0365 ± 0.41	-0.199 ± 0.073
CG T42G	0.0763 ± 0.34	-0.115 ± 0.2
